This note sets out measurements from patent US20230235004A1 (published 2023).

Where a chain is given by its changes, count along the chain named.

To fix the notation:
T1: human MAdCAM expressed on cells (human, UniProt Q13477 19-382)
T1 construct: whole, on cells
T1 sequence (looked up): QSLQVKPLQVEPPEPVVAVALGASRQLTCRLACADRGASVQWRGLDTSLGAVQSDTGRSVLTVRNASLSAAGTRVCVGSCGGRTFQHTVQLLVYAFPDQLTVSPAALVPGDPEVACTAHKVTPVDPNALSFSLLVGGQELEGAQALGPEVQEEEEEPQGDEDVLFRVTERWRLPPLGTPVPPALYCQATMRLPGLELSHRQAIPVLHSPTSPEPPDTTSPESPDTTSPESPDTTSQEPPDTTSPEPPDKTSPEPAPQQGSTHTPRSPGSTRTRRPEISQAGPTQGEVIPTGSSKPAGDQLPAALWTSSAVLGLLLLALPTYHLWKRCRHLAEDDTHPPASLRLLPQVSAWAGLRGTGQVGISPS

T2: mouse MAdCAM expressed on cells (mouse, UniProt Q61826 22-405)
T2 construct: whole, on cells
T2 sequence (looked up): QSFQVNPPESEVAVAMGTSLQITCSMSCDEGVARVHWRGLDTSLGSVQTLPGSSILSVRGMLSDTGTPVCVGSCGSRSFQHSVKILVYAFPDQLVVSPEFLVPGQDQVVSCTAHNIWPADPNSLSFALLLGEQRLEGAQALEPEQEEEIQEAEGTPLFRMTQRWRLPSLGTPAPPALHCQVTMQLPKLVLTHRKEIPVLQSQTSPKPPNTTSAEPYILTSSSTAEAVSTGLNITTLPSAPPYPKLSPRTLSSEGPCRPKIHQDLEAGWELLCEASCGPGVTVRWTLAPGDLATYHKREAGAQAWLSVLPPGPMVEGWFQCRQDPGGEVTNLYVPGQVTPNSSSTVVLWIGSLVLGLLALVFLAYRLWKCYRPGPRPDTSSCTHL

B1: MAdCAM antibody Table 1 clone 10 (scFv)
scFv: QVQLVQSGAEVKKPGASVKVSCKASGYTLTTWYMYWVRQAPGQGLEWMGWINPNRGATNYAQKFQGRVTMTRDTSTSTVYMELSSLRSEDTAVYYCAKGDLWGAMDVWGQGTLVTVSSGGGGSGGGGSGGGGSGGGGSDIQMTQSPSSLSASVGDRVTITCRASDNIGSWLAWYQQKPGKAPKLLIYAASSLQSGVPSRFSGSGSGTDFTLTISSLQPEDFATYYCQQGYSTPPTFGQGTKVEIK
B2: MAdCAM antibody Table 1 clone 21 (scFv)
scFv: EVQLLESGGGLVQPGGSLRLSCAASGFTFSNAWMSWVRQAPGKGLEWVSTIVGNGGATYYADSVKGRFTISRDNSKNTLYLQMNSLRAEDTAVYYCARDNPLRWQGMDVWGQGTLVTVSSGGGGSGGGGSGGGGSGGGGSDIQMTQSPSSLSASVGDRVTITCRASQDISNYLNWYQQKPGKAPKLLIYAASSLQSGVPSRFSGSGSGTDFTLTISSLQPEDFATYYCQQSYSIPPTFGPGTKVDIK
B3: MAdCAM antibody Table 1 clone 16 (scFv)
scFv: EVQLLESGGGLVQPGGSLRLSCAASGFTFEDYAMHWVRQAPGKGLEWVSYLNSDGGSTSYADSVKGRFTISRDNSKNTLYLQMNSLRAEDTAVYYCAKDYCTNGVCAFDYWGQGTLVTVSSGGGGSGGGGSGGGGSGGGGSDIQMTQSPSSLSASVGDRVTITCRASQSISTYLNWYQQKPGKAPKLLIYDASNLETGVPSRFSGSGSGTDFTLTISSLQPEDFATYYCQQSYTIPITFGQGTRLEIK
B4: MAdCAM antibody Table 1 clone 17 (scFv)
scFv: EVQLLESGGGLVQPGGSLRLSCAASGFTFSDSAMHWVRQAPGKGLEWVSAISGSGSTIYYADSVKGRFTISRDNSKNTLYLQMNSLRAEDTAVYYCVSDIAVAGHWYFDLWGRGTLVTVSSGGGGSGGGGSGGGGSGGGGSDIQMTQSPSSLSASVGDRVTITCRASQSISTFLNWYQQKPGKAPKLLIYAASRLEGGVPSRFSGSGSGTDFTLTISSLQPEDFATYYCQQANSFPLTFGPGTKVDIK
B5: MAdCAM antibody Table 1 clone 25 (scFv)
scFv: B1 scFv
B6: MAdCAM antibody Table 1 clone 30 (scFv)
scFv: B1 scFv
B7: MAdCAM antibody Table 1 clone 8 (scFv)
scFv: EVQLLESGGGLVQPGGSLRLSCAASGFMFGDYAMHWVRQAPGKGLEWVSAISGSGGSTYYADSVKGRFTISRDNSKNTLYLQMNSLRAEDTAVYYCAKDLVVAGIWYFDLWGRGTLVTVSSGGGGSGGGGSGGGGSGGGGSDIQMTQSPSSLSASVGDRVTITCRASQGISNNLNWYQQKPGKAPKLLIYDASSLESGVPSRFSGSGSGTDFTLTISSLQPEDFATYYCQQTHSFPSTFGQGTKLEIK
B8: MAdCAM Antibody Table 2 clone 72 (antibody, V domains shown)
VH: QVQLVQSGAEVKKPGASVKVSCKASGYTFTSYYMHWVRQAPGQGLEWMGVINPIGGTTTYAQKFQGRVTMTRDTSTSTVYMELSSLRSEDTAVYYCASGAPSYYYYGMDVWGQGTLVTVSS
VL: DIQMTQSPSSLSASVGDRVTITCRASQSISSYLNWYQQKPGKAPKLLIYGTSYLATGVPSRFSGSGSGTDFTLTISSLQPEDFATYYCQQSYSTPLTFGQGTKVEIK
notes: IgG format
B9: MAdCAM Antibody Table 2 clone 80 (antibody, V domains shown)
VH: EVQLLESGGGLVQPGGSLRLSCAASGFTFDDYAMHWVRQAPGKGLEWVSAISGSGGSTYYADSVKGRFTISRDNSKNTLYLQMNSLRAEDTAVYYCAKDLGVVVPAALDYWGQGTTVTVSS
VL: B8 VL with R24Q, S28D, S31N, Y32H, G50D, T51A, Y53N, A55E, T56A, Q100G
notes: IgG format
B10: MAdCAM Antibody Table 2 clone 73 (antibody, V domains shown)
VH: QVQLVQSGAEVKKPGASVKVSCKASGYTFTSNYVHWVRQAPGQGLEWMGRINPHSGDTSYAQKFQGRVTMTRDTSTSTVYMELSSLRSEDTAVYYCARAGQLWSDWYFDLWGRGTLVTVSS
VL: B8 VL with R24Q, S28D, S30R, S31N, G50A, T51A, S52T, Y53A, A55R, T94H
notes: IgG format
B11: MAdCAM Antibody Table 2 clone 66 (antibody, V domains shown)
VH: QVQLVQSGAEVKKPGASVKVSCKASGYTFTGHYMHWVRQAPGQGLEWMGIINPSGGSTSYAQKFQGRVTMTRDTSTSTVYMELSSLRSEDTAVYYCARDGAWFGEEYYYGMDVWGQGTTVTVSS
VL: DIQMTQSPSSLSASVGDRVTITCRASQGISNWLAWYQQKPGKAPKLLIYDASNLETGVPSRFSGSGSGTDFTLTISSLQPEDFATYYCQQYYSFPLYTFGQGTKVEIK
notes: IgG format
B12: MAdCAM Antibody Table 2 clone 77 (antibody, V domains shown)
VH: EVQLLESGGGLVQPGGSLRLSCAASEFTFSNAWMSWVRQAPGKGLEWVASISSTSAYIDYADSVKGRFTISRDNSKNTLYLQMNSLRAEDTAVYYCAREVVGATTFDYWGQGTLVTVSS
VL: DIQMTQSPSSLSASVGDRVTITCRASQSISTWLAWYQQKPGKAPKLLIYAASSLQSGVPSRFSGSGSGTDFTLTISSLQPEDFATYYCQQANAFPPTFGQGTRLEIK
notes: IgG format
B13: MAdCAM Antibody Table 2 clone 67 (antibody, V domains shown)
VH: QVQLVQSGAEVKKPGASVKVSCKASGYTFTGYYMHWVRQAPGQGLEWMGMIYPRDGSTSYAQKFQGRVTMTRDTSTSTVYMELSSLRSEDTAVYYCAMTGWGYGMDVWGKGTTVTVSS
VL: DIQMTQSPSSLSASVGDRVTITCRASQGINNYLAWYQQKPGKAPKLLIYDASTLQSGVPSRFSGSGSGTDFTLTISSLQPEDFATYYCQQSYSAPPTFGQGTKLEIK
notes: IgG format
B14: MAdCAM Antibody Table 2 clone 68 (antibody, V domains shown)
VH: EVQLLESGGGLVQPGGSLRLSCAASGFTFGDYAMSWVRQAPGKGLEWVAVVSYDGTNKYYADSVKGRFTISRDNSKNTLYLQMNSLRAEDTAVYYCAKDICSSTSCYFDLWGRGTLVTVSS
VL: B13 VL with G28N, L33V, A34N, T53N, Q55E, S56T, S91A, Y92N, A94F, K103R
notes: IgG format
B15: MAdCAM Antibody Table 2 clone 70 (antibody, V domains shown)
VH: QVQLVQSGAEVKKPGASVKVSCKASGYPFTDYYMHWVRQAPGQGLEWMGWIKPNSGDTEYAQKFQGRVTMTRDTSTSTVYMELSSLRSEDTAVYYCARDRFVGKPDYYYYGMDVWGQGTMVTVSS
VL: B12 VL with T31V, A91S, N92Y, A93D, F94T, P96Y, R103K
notes: IgG format
B16: MAdCAM Antibody Table 2 clone 81 (antibody, V domains shown)
VH: EVQLLESGGGLVKPGGSLRLSCAASGFAFSSHWMHWVRQAPGKGLEWVAGTSGSGESRDYADFVKGRFTISRDDSKNTLYLQMNSLKTEDTAVYYCARETYYYYYMDVWGKGTTVTVSS
VL: B13 VL with N30S, S52A, T53N, Q55E, S56G, Y92D, S93I, A94F, L104V
notes: IgG format
B17: MAdCAM Antibody Table 2 clone 69 (antibody, V domains shown)
VH: QVQLVQSGAEVKKPGASVKVSCKASGYTFTSYYMHWVRQAPGQGLEWMGIIDPSGGSTSYAQKFQGRVTMTRDTSTSTVYMELSSLRSEDTAVYYCAREEWSSGGVGYFDYWGQGTLVTVSS
VL: B13 VL with N30S, N31S, D50A, A51T, T53S, S56T, S91T, A94I, P96I, K103R
notes: IgG format
B18: MAdCAM Antibody Table 2 clone 71 (antibody, V domains shown)
VH: QVQLVQSGAEVKKPGASVKVSCKASGYTFTSYYMHWVRQAPGQGLEWMGIINPSGGSTSYAQKFQGRVTMTRDTSTSTVYMELSSLRSEDTAVYYCARDSVAGTGGRYYGMDVWGQGTLVTVSS
VL: B13 VL with N30S, L33F, D50A, T53S, S56G, A94L, P96Y
notes: IgG format

For one experiment, the target named is T1, human MAdCAM expressed on cells. Put plainly: cell binding.
As for B1, the binding result is given as “binds”.

In the case of B2, the binding result is “binds”.

Turning to B3, the binding result is “binds”.

Consider B4, for which the binding result was “binds”.

A further experiment concerns the target T2, mouse MAdCAM expressed on cells. Description: cell binding.
Turning to B1, the binding result is listed as “no binding”.

As to B5, the binding result is recorded as “no binding”.

On to B6, for which the binding result is listed as “no binding”.

In the case of B2, the binding result is “no binding”.

On to B3, for which the binding result is “no binding”.

Turning to B4, the binding result is on record as “no binding”.

For B7, the binding result is “no binding”.

The next experiment deals with T1, human MAdCAM expressed on cells. Description: cell binding. This is another data set of the same source.
B8: the binding result was “binds”.

Regarding B9, the binding result is listed as “binds”.

Consider B10, for which the binding result is reported as “binds”.

B11: the binding result is “binds”.

Consider B12, for which the binding result is reported as “binds”.

Regarding B13, the binding result was “binds”.

On to B14, for which the binding result was “binds”.

B15: the binding result is listed as “binds”.

As to B16, the binding result is reported as “binds”.

Consider B17, for which the binding result is “binds”.

On to B18, for which the binding result was “binds”.

A further experiment deals with T2, mouse MAdCAM expressed on cells. Description: cell binding. The source holds these as a separate data set.
Turning to B8, the binding result is listed as “no binding”.

With B9, the binding result was “no binding”.

As to B10, the binding result is “no binding”.

Regarding B11, the binding result was “no binding”.

As to B12, the binding result is on record as “binds”.

For the molecule B13, the binding result is given as “no binding”.

Take B14: the binding result was “no binding”.

For B15, the binding result is “no binding”.

As for B16, the binding result is “binds”.

Take B17: the binding result is on record as “no binding”.

Consider B18, for which the binding result is given as “no binding”.
